Measurements from the DeepSol protein solubility set.

assay: soluble on expression in E. coli; label from the status in PepcDB or PDB records

| Sequence | soluble on expression in E. coli |
| --- | --- |
| MAISNILPRKIMKNRTRQQSMAERHDYDQKEEKTDGGELVSSYMCSPETAAEEFEISKKLYAQLTGRSQSEKHDIIMYRIIQSFKPDEVSPEEAHKIGCELAMKFTGGQHQFVVATHTDKRHIHTHIEFNSTNLNCDAKFQNVKNSAFILRRMNDELCRAHGLSVIENPKKKARPQKEMAAAQYGVSHKKQLQQAIDRLLPECNHYEEFLAKMRAEGYEVVDGKNPGFRLPGWDRPTRVNRLGDDYTKTALRARITSQRRRLTSGKTAPKRTGRKVNLLIDIQAKLAAGKGAGYERWAKIFNLKEAAKTLNFLIENNLTDYDELALRAEQAENGFNAVSQKIKQLEARMAGIAQLKTHIIQYSKTREVYAAYKKSRHKKEFLAEHGAEIAQHEAAKKAFDALNGKAIPKVAQLSAEYAALLEEKREQYEQYKTLRQDMITYQTALRNMDKILGLEPPEQAQEKEQTKPER | not soluble |
| MAITDILSAKDIESALSSCQAADSFNYKSFFSTVGLSSKTPDQIKKVFGILDQDKSGFIEEEELQLFLKNFSSSARVLTSAETKAFLAAGDTDGDGKIGVEEFQSLVKA | soluble |
| MAIVKKKKVSAASKAATEKPEVKKAVKRPVAETEAVTPKKKKLVKKVKKSAKKAHEEEPIEQVEKLQLIDDDEDGLEGLSFPGSDDEDLRDDYSDDDSDAGDHLPIEKKSAALDKQKEKIIAEGEEELQLNIANQATFELPTVEEIENEMKSVPNLEIVKQRIADVIQVLGDFKNRRDPQKSRENYVEVLKKDLCSQYGYNDYLMGKFMDLFPNGAELLEFLEANDNPRPVTIRANSLKVKRRDLAKNLINRGMNVDPAADWTKVGLVVYDSQVPVGATPEYLAGHYMIQGLNSLLPVMALAPQPGDRVLDMCSAPGGKTSHIAALMKNSGVLFANDANFTRCRAIIGNLHRLGVNNTVVCNLGGEEFSKIRPNGFDRILLDAPCSGTGVIWKDQSVKTSKDSQDVQRRHTMQRQLILSALDSLDANSPNGGYLVYSTCSVLVEENEAVVNFLLERRHCELVPTGLSIGVDGYTRFRDYRFHPSLSMTKRYYPHVHNIDGFYVAKIKKLSNAKMSKQGVMEKEKEKAAQKSQNKKNKAEAEASESSDDEEEKKNGVEVNGQKKPAKKQQQKKQKADGDDSDDDNNAPMKNIGSGARANKKRRNQKKAAEKQAAVKEDDGFNTVGNVKRAKKPTQFKSKVPKRAAARTGAKSVKNRRKKMLAKQQ | not soluble |
| MAIVPRPITKFKRACLRIKLARCQKTPLSNFARSDLRSFSVFRFNLSVLQLVSSKIVKLDIMKQAAITSALTQNKMDPINGNLTSTAPVEPLSLTAAEQVGGAFCHQFYITVSENRKAITKFYGHESKFYLDDQVVTGSQEIVKLYNHLPETTHFKIQSIKGYPTPHKQGVIINVIGTVNLRPFLQSFLLGQQGQKKYYVESDAFQYIDKFFVANTEKEKTTSSTGHNGHASGANGKDSKSSKTEQPKEQSKPAPPKQQTPKKAEDRIVKQDTPKSVEKEVAKTPQKPQLAQQPPQQRAPVPEPVQEQPKVQKTWANLVGGGGKSQPPQQQSYGQGQQIHQQTQMHHMQPSMHQQQQGSHAPLYQQQRQSHPANELRQAQESSDANLNERKIYLGGITREIVPSNTAQAESEIKQVFYKYGEIEEVRMPRKVLDSPNDTSKHAFAFITMRNKAGVKAIFEAATKDEQGVWKLPLKLDAFGFDGHAQISEQRDQPQGGGFRGGRGGFQPRGGQFFRRGGSGGAPRGGMRSGFQNAGQN | not soluble |
| MAKAFEEQRRSPDLEALPFEDRIGLLVDREAAERDTRRLTTRLKIAALRQTACVEDVDLRTPRGIDRAVFAKLVEGRWIDRHENLLVTGATGLGKSWLACALGHKACRDNRSVLYHRVPRLFEALALARGDGRYARLLKSLGRAQLLILDDWGLSVLTAAERRDLLEILEDRHGRASTIVTSQLPWTPGMEPLGTPRSPTPFSIASSTTPTASSSPEKACENAAPKPSPLTANQNTDSISHRPAAALEHHHHHH | not soluble |
| MAKAPDIVDLLTLAVDRNASDLVITVGLPPMIKIDGEFHPTEHEALTPQDTRRLMYALMDEKQQRHFEEEKELDFSFSLPAKGRYRVNVFLQRGSVGGVLRVVPTVVKSFEELGLPKNIGELALTPRGLLLITGPTGSGKSTTLASMIDYINERRRAHIVTIEDPIEFFHRHKTSIINQREIGSDTHGFHKALRSVLRQAPDVILVGEMRDYETISAAITAAETGHLVMGTLHTNSAPETIDRIIDVFPEAQQEQVRVQLANNLVAVMTQQLLPKAFGGGRVLAYELMIATSAVRALIREGKSHQLVSVIQTGGQYNMITMDACLADLYKRKLITYEMGQSRAVDPKEFARLAGAAAPAASTNTGAQRRA | soluble |
| MAKDDVIEVEGTVLETLPNAMFKVELENGHVVLAHVSGKIRMNFIRILPGDKVTVELSPYDLNRGRITYRFK | not soluble |
| MAKELAEKAKEAFLDDDFDVAVDLYSKAIDLDPNCAAFFADRAQANIKIDNFTEAVVDANKAIELEPTLAKAYLRKGTACMKLEEYSTAKAALEKGASVAPNEPKFKKMIDECDLRIAEEEKDLVQPMPPSLPSSSTTPLATEADAPPVPIPAAPAKPMFRHEFYQKPEEAVVTIFAKKVPKENVTVEFGEQILSVVIDVAGEEAYHLQPRLFGKIIPEKCRFEVLSTKVEIRLAKAEIITWASLEYGKGQSVLPKPNVSSALSQRPVYPSSKPAKDWDKLEAEVKKQEKDEKLDGDAAMNKFFSDIYSSADEDMRRAMNKSFAESNGTVLSTNWKEVGTKKVESTPPDGMELKKWEY | not soluble |
| MAKGIMLHEVGEQVDQYLLIKSSTKGIASNGKPFLTLMLQDQSGDIEAKLWDAKQSDEVTYAPQTIVKVVGDVHHYRGRTQLKLRNIRPVSEQENVNIDDFLETAPIPKNEMMDTITQYIFEMKNPNIQRITRFLVKKHEAEFMDYPAATKNHHEFVSGLAYHVVSMLNLAKAIADLYPSLDRDLLYAGVILHDLGKVKELSGPVSTSYTVEGNLLGHISIMVTELSKAAEELQIDSEEVLILQHLILSHHGKAEWGSPKPPMVKEAEILHYIDNLDAKMNMMDRALERVKPGEYTERVFALENRSFYKPTFHK | not soluble |
| MAKKGPKRHLKRLAAPVRWELPRKIHKFTVRPLPGAHPMSESLPLLLIVRDILKYADNAREAKKIIKMGKVLVDGRVRKEEKLPVGLMDVVSLPDANENYRVLFDRKGRIKLKPTENPDVKLCKIKNKTVIKGGHIQLNLHDGRNIVIKVSDPTKAEEDVYKTGDTLLISIPEQEIKAHIPFEVGKLAYITGGKHVGDFAKIVEIERRGIYPDIVTLENMDGEKFKTVKDYVFVVGDEEPIIKLLEHHHHHH | soluble |
| MAKLDDWTDIFLDDEGNFRASADGDVQLVTGKAAYLQDVKHELETVLGSYPFDENYGTRLITYLQRENTELARQELIQDVEEVVMRHSFVVPGSVDVRANSWTLREIEFSVSFGVQTSGGIEPAELTVQITVDGVRVVRSE | not soluble |
| MAKLLITGGCGFLGSNLASFALSQGIDLIVFDNLSRKGATDNLHWLSSLGNFEFVHGDIRNKNDVTRLITKYMPDSCFHLAGQVAMTTSIDNPCMDFEINVGGTLNLLEAVRQYNSNCNIIYSSTNKVYGDLEQYKYNETETRYTCVDKPNGYDESTQLDFHSPYGCSKGAADQYMLDYARIFGLNTVVFRHSSMYGGRQFATYDQGWVGWFCQKAVEIKNGINKPFTISGNGKQVRDVLHAEDMISLYFTALANVSKIRGNAFNIGGTIVNSLSLLELFKLLEDYCNIDMRFTNLPVRESDQRVFVADIKKITNAIDWSPKVSAKDGVQKMYDWTSSILEHHHHHH | soluble |
| MAKNSPQDLINREIFSTNLNMLMAKKNIKQIDIHNKLGIPKSTITGYVKGRSLPTAGNVQKLADFFGVLKSDIDPRFDSNNIETNSNIIPSTLQKVTSTLSQLEHKRQLNVLDYAETQLEQQNTVEEPQATYYTYNYYDHAASAGTGQYLNDVQVETIELPVDYDADFVIPVYGDSMEPEYHSGDYVFIKLSINLSDGDIGVFEYYGDAYIKQLVINDSGAFLHSLNDKYDDILIDRDSDFRIIGEVIGSFTSKS | not soluble |
| MAKQPTVLWAQRESLVYLTIEVDEAKIEELKGEGNKLHFQGSSKTDKYEATLEFFDEIDPASVKHTGSSTRVVEITVQKKTPAWWPRLLQNKGKVHWLKVDFGKWKDEDEDDEAEDAGAGIGGGMANGFDLNQYMSQMGGAGGADFGGLEDDEEDDDMPDLEDNEEEEGKNGTRA | not soluble |
| MAKSLRASSHLNAKSVKRRGVFQKAVDAREQRISDKLKEDLLKQKLEDLKKKEEQGIDMDVDEKKSNEEAPRKKISTSGWRDGRHHTYKKAKLMKQSKKKTSFTRF | soluble |
| MAKVIFQDNFLLMGTNYHEKEANKVMAEIGKKSPYWDKDKDFISDYIKSNFKDIYKYYRVSTKDVEIVREPLNRHDPNAIKVMVNKTFVGYFPADLAKRLTPYVKKSSHYQMEATLTGRGGQYKTLKNDLKTVVTKKKDITYKLRLTILKVDRVSKSKNAGLLESIASWFLNLEHHHHHH | soluble |
| MAKWGQGDPRWIVAEREDGTNVNNWHWTARDATIWSKGKLRELLVGIAMENEAGRCEISELKQVEGEASCNSRKGKLIFFYEWNIKLAWKGTVKESGAKHKGLIEIPSLSEENEINDTEVNVSKKKGDGEILKDLMRTTGTAKVREALGEYLKALKTEFTTGMILPTKAVATQELTLQRKLNENKLQASPVALGVRIPTVALHLTELFDTTVEQLYSIFTVKELVQKFSKSPAVLEAERGGKFQMFDGNISGEYVELVTNRKIIMKWRCRNWPEALGFFPRTLCNS | not soluble |
| MALEGLKTSCCRPNEPLTTNSMAIAQEKAQHQQRSSLRNMTRPMIGRSGPKEASMTTRTRRETIVFAHPFRLRGIDRELPAGAYDVITDEELIEGLSFPVFRRVATMITVPCAPPRQSAVEMLTIEPDALRDARQADSSTSRA | not soluble |
| MALEPIDYTTHSREIDAEYLKIVRGSDPDTTWLIISPNAKKEYEPESTGSSFHDFLQLFDETKVQYGLARVSPPGSDVEKIIIIGWCPDSAPLKTRASFAANFAAVANNLFKGYHVQVTARDEDDLDENELLMKISNAAGA | soluble |
| MALLQISEPGLTAAPHQRRLAAGIDLGTTNSLVATVRSGKAQTLADEQLADEQLIADEQLIAGEQLIAGQQLIAGQQLINEKQRDLLPSVVHYHPQGIDVGWKARNLAALDPVNTISSVKRMMGRSLADIVQRYPNLPYQFHASENGLPMIQTARGLVNPVQVSAEILKTLAQRAQAALAGELDGVVITVPAYFDDAQRQGTKDAARLAGLHVLRLLNEPTAAAIAYGLDSGQEGVIAVYDLGGGTFDISILRLSRGVFEVLATGGDSALGGDDFDHLLADWLREQAGVATRDDHGIQRQLLDTAIAAKIALSEAETAVVSVAGWQGEVTREQLESLIAPQVKRTLMACRRALKDAGVTADEILEVVMVGGSTRVPLVREQVGQFFGRTPLTSIDPDKVVAIGAAIQADILVGNKPDSDMLLLDVIPLSLGLETMGGLVEKVIPRNTTIPAARAQEFTTFKDGQSAMMIHVLQGERELVKDCRSLARFTLRGLPPLPAGGAHIRVTFQVDADGLLSVTAMEKSTGVEASIQVKPSYGLSDDEIANMIKDSMANAQSDITARKLAEQRVDAARVLESLQGALAEDAALLSEQESAAIAQAVALLQQQMQGSDPQAIEAAIKALDAQTQDFAARRMDASIRRALAGHSVDEV | soluble |
| MALPKTGYTKTTADNFVIDSATVFTDFKYDKEKEEFTGIPMGATSGGVEIKTELSYRKVEVDGAYIMDVVGLNVLESATATMKANLIELTAENLRRSLNATMTDATTDEAPAGYKIIKPKRYLEEGDYIPNMAVVGIHNGTKQPIIVALDNGLVKSGLEIKTEDGKEVVIEQEITANASYEQLINDEFPFRIYYPSTSKNPIELTESL | not soluble |
| MALPQRQIVRAENVKIGISWQCALCDLDIYARPLPGAEVIYFGRMVTTHGRYWKDYRNSPQPTNGYETISFDVPLDLRPVVIAINFYEGEAPQGVSGEIRIAVDENTYAAPFHISATRGNRGQGVAKIIETGKASGNHSVIVDPLHIIRAR | not soluble |
